Test results: patent US7012133 (CHILDREN S MEDICAL CENTER, dated 2006)

B3: human eotaxin (ligand)
chain: not shown
modifications: 125I label (Bolton Hunter reagent) where used as radioligand

What was measured:
[1] = biological target: T1, C-C chemokine receptor 3 (CCR3, CKR-3) of human origin, native, on blood eosinophils and basophils (human, UniProt P51677 1-355); assay: inhibition of 0.1 nM 125I-MCP-3 binding to human eosinophils by varied 7B11
T1 construct: whole, on cells; also called Eos L2 receptor; eosinophilic chemokine receptor
T1 sequence (looked up): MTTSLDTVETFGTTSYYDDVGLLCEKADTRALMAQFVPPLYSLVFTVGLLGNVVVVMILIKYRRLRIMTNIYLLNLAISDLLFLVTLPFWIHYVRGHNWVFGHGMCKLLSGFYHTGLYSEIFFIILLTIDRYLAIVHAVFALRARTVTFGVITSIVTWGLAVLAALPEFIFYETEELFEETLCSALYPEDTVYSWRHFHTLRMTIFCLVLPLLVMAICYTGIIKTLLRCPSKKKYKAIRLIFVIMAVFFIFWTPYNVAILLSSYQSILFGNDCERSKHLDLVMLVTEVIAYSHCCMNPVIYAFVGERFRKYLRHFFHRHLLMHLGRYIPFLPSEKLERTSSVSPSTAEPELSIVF

[2] = biological target: T1, C-C chemokine receptor 3 (CCR3, CKR-3) …; assay: inhibition of 0.1 nM 125I-eotaxin binding to human eosinophils by varied 7B11
[3] = biological target: T1, C-C chemokine receptor 3 (CCR3, CKR-3) …; assay: inhibition of 0.1 nM 125I-RANTES binding to human eosinophils by varied 7B11
[4] = biological target: T2, MIP-1α binding sites on human eosinophils; assay: Scatchard analysis, radioligand binding to human eosinophils
T2 construct: also called receptor for MIP-1α on eosinophils
Procedure: (§1) In microfuge tubes, 5 ×10^5 cells were incubated with 0.1 nM radiolabeled chemokine (purchased from New England Nuclear, Massachusetts) in 200 µl aliquots at room temperature for 60 minutes. The cells were either incubated with radiolabeled chemokine alone, or together with unlabeled chemokines (from PeproTech) as competitors, which were used at the indicated concentrations. At the end of incubation, cells were washed 3 times in the binding buffer, each wash consisting of centrifugation in a microfuge at 7,000×g for 2 minutes. After the wash, the pellets were transferred into LP3 tubes and the radioactivity of the cells, which represented the amount of binding was measured in a gamma counter. All samples were in duplicates and all the experiments were repeated at least 3 times. Scatchard Plot was calculated from the binding data by MicroSoft Excell and CricketGraph on a Macintosh computer.
(§2) Figure 6: FIG. 6 is a histogram illustrating the binding of RANTES and MIP-1α to human eosinophils. […] Human eosinophils were incubated with 0.1 nM radiolabeled RANTES and the indicated concentrations of cold chemokines. The data plotted are the means and standard deviations of duplicates for each sample.

[5] = biological target: T1, C-C chemokine receptor 3 (CCR3, CKR-3) …; assay: Scatchard analysis of unlabeled eotaxin competition on human eosinophils
Procedure: (§3) FIG. 11A) or to human eosinophils (FIG. 11B). […] After 60 minutes at room temperature, cell pellets were washed and counted. Scatchard plots of unlabeled eotaxin competition were calculated from the data (FIG. 11C, E5 cell line; FIG. 11D, eosinophils).
(§4) Competition is presented as the percentage of specific binding as calculated by $100(S-B)/(T-B)$, where S is the radioactivity of the sample, B as background binding and T as total binding without competitors. Background binding was obtained by incubating cells with radiolabeled chemokine and at least 400-fold excess of unlabeled chemokines. […] Duplicates were used throughout the experiments and the standard deviations were always less than 10% of the mean. All experiments were repeated at least three times. Curve fit was calculated by […] software.
(§5) The E5 cell line described in Example 6 was tested for its ability to bind radiolabeled eotaxin. […] In addition, both RANTES and MCP-3 were able to specifically compete for binding. None of the other chemokines tested, including MIP-1α, MIP-1β, or IL-8 were able to specifically compete for radiolabeled ligand (FIG. 12).

human eotaxin = biological target: B3; assay: Scatchard analysis of unlabeled eotaxin competition on E5 cells
Chain of human eotaxin (P51671 24-97 limits assumed): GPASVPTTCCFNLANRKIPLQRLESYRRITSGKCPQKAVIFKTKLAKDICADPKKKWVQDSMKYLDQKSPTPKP
Procedure: as §3, §4, §5

[6] = biological target: T3, CCR1 on stable L1.2 transfectants (UniProt P32246 1-355, limits assumed); assay: 125I-RANTES binding to L1.2 CCR1 transfectants
T3 construct: whole, on cells; also called CKR-1; CC CKR1
T3 sequence (looked up): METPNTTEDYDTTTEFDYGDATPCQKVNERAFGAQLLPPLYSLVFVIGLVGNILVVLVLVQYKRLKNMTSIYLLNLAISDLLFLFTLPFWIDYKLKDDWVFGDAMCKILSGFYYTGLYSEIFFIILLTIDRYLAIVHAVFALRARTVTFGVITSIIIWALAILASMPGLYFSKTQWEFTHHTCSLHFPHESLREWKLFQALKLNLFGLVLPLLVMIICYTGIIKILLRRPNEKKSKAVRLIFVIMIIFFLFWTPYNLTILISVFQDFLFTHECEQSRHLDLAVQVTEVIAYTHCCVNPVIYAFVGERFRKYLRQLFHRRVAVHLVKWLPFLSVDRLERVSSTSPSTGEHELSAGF

[7] = biological target: T4, receptor encoded by the A31 cDNA clone (human CKR-3 / Eos L2) (human, UniProt P51677 1-355); assay: Scatchard analysis, 125I-RANTES on membranes of A31-293-#20 cells
T4 construct: one RBL transfectant is also mentioned
T4 sequence: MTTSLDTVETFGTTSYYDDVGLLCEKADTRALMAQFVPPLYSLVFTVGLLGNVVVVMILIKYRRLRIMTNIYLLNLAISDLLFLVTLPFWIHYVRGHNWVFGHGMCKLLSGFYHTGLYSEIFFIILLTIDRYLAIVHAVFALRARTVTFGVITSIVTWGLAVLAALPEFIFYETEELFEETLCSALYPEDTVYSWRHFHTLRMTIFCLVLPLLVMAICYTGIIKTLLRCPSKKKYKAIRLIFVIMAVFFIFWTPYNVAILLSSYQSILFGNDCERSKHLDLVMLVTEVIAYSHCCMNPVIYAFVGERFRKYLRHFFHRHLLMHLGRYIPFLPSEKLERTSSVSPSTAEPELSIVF
Procedure: Plates were grown to confluence, and membranes were prepared as follows. Culture medium was removed, and the cells were washed with phosphate buffered saline. Cells were harvested by washing with TEN (40 mM TRIS, pH 7.5, 1 mM EDTA, and 150 mM NaCl). The cells were frozen in liquid nitrogen, thawed at room temperature, and the membrane fraction was collected by centrifugation in a conical tube for 10 minutes at 18,000 rpm. Each binding point was determined using one-half of the membranes harvested from a single 100 mm plate grown to confluence.
Binding assays were performed as described by Van Riper, G. et al., J. Exp. Med., 177: 851 (1993), with the following modifications. […] Binding buffer was 50 mM Hepes, 1 mM CaCl_2, 5 mM MgCl_2, 0.5% BSA, pH 7.2. Radiolabeled and cold ligand were added simultaneously to the membranes (see above), and incubated for 1.5 hours at room temperature. […] Activity retained on filters after washing was determined by scintillation counting. Filters were placed in 5 cc of scintillation fluid and were then counted in a miniaxi-beta liquid scintillation counter (United Technologies, Packard, Downers Grove, Ill.). All points were determined in triplicate, except for the point at 2 nM, which was determined in duplicate. […]

[8] = biological target: T1, C-C chemokine receptor 3 (CCR3, CKR-3) …; assay: Scatchard analysis, radioligand binding to human eosinophils
Procedure: as §1, §2

[9] = biological target: T1, C-C chemokine receptor 3 (CCR3, CKR-3) …; assay: heterologous competition of radiolabeled RANTES binding on eosinophils
Procedure: as §1, with “Cells transfected with Eos L2 receptors or normal human eosinophils purified (see above) were washed in Hanks Balanced Saline Solution (HBSS), then resuspended in binding buffer: 50 mM HEPES, 1 mM CaCl_2, 5 mM MgCl_2, 0.5% Bovine Serum Albumin (BSA), pH 7.3. In” for “In”
Figure 6: FIG. 6 is a histogram illustrating the binding of RANTES and MIP-1α to human eosinophils. […] Human eosinophils were incubated with 0.1 nM radiolabeled RANTES and the indicated concentrations of cold chemokines. […]

B1: monoclonal antibody 7B11 (ATCC Accession No. HB-12195) (antibody, V domains shown)
VH: MVQLQQSGTVLARPGASVRMSCKTSGYTFTNYRMHWVRQRPGQGLEWIGSIYPGHTETTYNQNFKDKAKLTAVTSATTAYMGLSSLTNEDSAVYYCTRSGGNYWGQGTTVTVSS
VL: DIQMTQSPSSLSASLGERVSLTCRASQDIGSSLNWLQQKPDGTFIRLIYATSSLDSGVPRRFSGSRSGSDYSLTISSLESEDFVDYYCLQYATFPLTFGAGTKLEIK
IC50 [1]: 0.0188 µg/mL
IC50 [2]: 0.0257 µg/mL
IC50 [3]: 0.0137 µg/mL

B2: MIP-1α (ligand, human, UniProt P10147 23-92, looked up)
chain: ASLAADTPTACCFSYTSRQIPQNFIADYFETSSQCSKPGVIFLTKRSRQVCADPSEEWVQKYVSDLELSA
modifications: also: 125I label where used as radioligand
notes: also called macrophage inflammatory protein 1α
Kd [4]: 0.091 nM

B3
Kd [5]: 0.5 nM

B4: FLAG-tagged Eos L2 (CKR-3) receptor (receptor)
chain: MDYKDDDDKEFTTSLDTVETFGTTSYYDDVGLLCEKADTRALMAQFVPPLYSLVFTFGLLGNVVVVMILIKYRRLRIMTNIYLLNLAISDLLFLVTLPFWIHYVRGHNWVFGHGMCKLLSGFYHTGLYSEIFFIILLTIDRYLAIVHAVFALRARTVTFGVITSIVTWGLAVLAALPEFIFYETEELFEETLCSALYPEDTVYSWRHFHTLRMTIFCLVLPLLVMAICYTGIIKTLLRCPSKKKYKAIRLIFVIMAVFFIFWTPYNVAILLSSYQSILFGNDCERTKHLDLVMLVTEVIAYSHCCMNPVIYAFVGERFRKYLRHFFHRHLLMHLGRYIPFLPSEKLERTSSVSPSTAEPELSIVF
notes: Receptor from the 1.8 kb genomic HindIII fragment, expressed on L1.2 (L1-2) pre-B cells, 293 cells or baculovirus-infected Sf9 cells; also called Eos L2 receptor fusion protein; CKR-3/pcDNA3 product
Kd (human eotaxin): 1.5 nM

B5: RANTES (ligand, human, UniProt P13501 24-91, looked up)
chain: SPYSSDTTPCCFAYIARPLPRAHIKEYFYTSGKCSNPAVVFVTRKNRQVCANPEKKWVREYINSLEMS
modifications: also: 125I label where used as radioligand
notes: also called cold RANTES
binding result [6]: binds
Kd [7]: ~2.5 nM
Kd [8]: 0.883 nM

B6: MCP-3 (ligand)
chain: not shown
modifications: 125I label where used as radioligand
notes: also called human MCP-3
binding result [9]: binds
